Assay results published in US20250027068.

B1: PRT-485 (protein)
chain: MVTSVWTKGVTPPANFTQGEDVFHAPYKANQGWYDITKTFNGKDNLLCGAATAGNMLHWWFDQNKDQIEAYLKEHPEKQKIIFNNQELFDLKAAIDTKDDQTNSKLFEYFKEKAFPYLSTKHLGVFPDHVLDMFINGYRLSLTNHGPTPVKEGSKDKRGGIFDAVFTRGVQSKLLTSRHDLKNKTLKEISDLIKQELTEGKALALSHTYANVRINHVINLWGADFDSNGNLEAIYVTDSDTNASIGMKKYFVGVNSAGKVAISAKEIEDDNIGAQVLGLFTLSTGQDIWNQTNLEHHHHHH
B2: PRT-489 (protein)
chain: MVTSVWTKGVTPPANFTQGEDVFHAPYVANQGWYDITKTFNGKDNLLCGAATAGNMLHWWFDQNKDQIERYLKEHPEKQKIIFNNQELFDLKAAIDTKDSQTDSKLFEYFKEKAFPYLSTKHLGVFPDHVLDMFINGYRLSLTNHGPTPVKEGSKDKRGGIFDAVFTRGVQSKLLTSRHDLKNKTLKEISDLIKQELTEGKALGLSHTYANVRINHVINLWGADFDSEGNLKAIYVTDSDTNASIGMKKYFVGVNSAGKVAISAKEIKEDNIGAQVLGLFTLSTGQDIWNQTNLEHHHHHH
B3: PRT-470 (protein)
chain: MVTSVWTKGVTPPTDFIYGEDVLHAPYKAGQGWYDITKTFNGKDDLLCGAATAGNMLHWWFDQNKEQIENYLKKHPEKQKINFNGEQMFDVKEAIDTKDSQLDSKLFEYFKEKAFPYLSTKHLGVFPDHVIDMFINGYRLSLTNHGPTPVKRGSKDPRGGIFDAVFTRGDQSKLLTNRHDFKEKTLKEISDLIKQELTEGKALGISHTYANVRINHVINLWGADFDAEGNLEAIYVTDSDSNASIGMKKYFVGVNSNGKVAISAKEIEEDNIGAQVLGLFTLSTGQDIWNQTNLEHHHHHH
B4: PRT-498 (protein)
chain: MVTSVWTKGVTPPTDFRKIVDGNIAYYHAPYKAGQGWYDITKAFDGGDDLLCGAATAGNMLHWWFDQNKEYIEAYLKKHPEKQKIMFGDQELLDVRKAINTKGSQKNSELFNYFRDKAFPNLSARRLGVMPDLVLDMFINGYYLNVTKTQTTDVNRTYQEKDKRGGIFDAVFTRGDQSKLLTSRHDLKNKGLKEISDLIKQELTEGKALGLSHTYANVRINHVINLWGADFDSDGNLKAIYVTDSDSNASIGMKKYFVGVNSAGKVAISAKEIKEDNIGAQVLGLFTLSTGQDIWNQTNLEHHHHHH
B5: PRT-450 (protein)
chain: MVTSVWTKGVTPPTDFRKIVDGNIAYYHAPYKAGQGWYDITKAFDGGDDLLCGAATAGNMLHWWFDQNKDQIEAYLKEHPEKQKINFNGEQMFDVKEAIDTKDDQTNSELFNYFKEKAFPYLSTKHLGVFPDHVLDMFINGYRLSLTNHGPTPVKEGSKDPRGGIFDAVFTRGDQSKLLTSRHDLKNKTLKEISDLIKQELTEGKALALSHTYANVRINHVINLWGADFDSNGNLEAIYVTDSDSNASIGMKKYFVGVNSAGKVAISAKEIEDDNIGAQVLGLFTLSTGQDIWNQTNLEHHHHHH
B6: PRT-462 (protein)
chain: MVTSVWTKGVTPPTDFRKIVDGNIAYYHAPYKAGQGWYDITKAFDGGDDLLCGAATAGNMLHWWFDQNKDQIERYLKEHPEKQKINFNGEQMFDVKEAIDTKDSQTNSELFNYFKEKAFPYLSTKHLGVFPDHVLDMFINGYRLSLTNHGPTPVKEGSKDPRGGIFDAVFTRGDQSKLLTSRHDLKNKTLKEISDLIKQELTEGKALGLSHTYANVRINHVINLWGADFDSEGNLKAIYVTDSDSNASIGMKKYFVGVNSAGKVAISAKEIKEDNIGAQVLGLFTLSTGQDIWNQTNLEHHHHHH
B7: PRT-492 (protein)
chain: MVTSVWTKGVTPPTDFRKIVDGNIAYYHAPYKAGQGWYDITKAFDGGDNLLCGAATAGNMLHWWFDQNKEQIENYLKKHPEKQKIIFNNQELFDLKAAIDTKDSQTNSELFNYFKEKAFPYLSTKHLGVFPDHVIDMFINGYRLSLTNHGPTPVKRGSKDKRGGIFDAVFTRGVQSKLLTNRHDLKNKTLKEISDLIKQELTEGKALGISHTYANVRINHVINLWGADFDAEGNLEAIYVTDSDTNASIGMKKYFVGVNSNGKVAISAKEIEEDNIGAQVLGLFTLSTGQDIWNQTNLEHHHHHH
B8: PRT-515 (protein)
chain: MITSVWTKGVTPPTDFIKGEDVFHAPYKAGQGWYDITKAFDGGDDLLCGAATAGNMLHWWFDQNKEEIEAYLKKHPEKQKIMFGDQELLDVRKVINTKDSQTNSALFNYFKDKAFPNLSARRLGVMPDLVLDMFINGYYLNVYKTQTTDVNRQEQTKDRRGGIFDAVFGRGDQTKLLTERHDLKNKTLNEISQLIKQELTEGKALGLSHTYANVRINHVINLWGADFDAEGNLEAIYVTDSDSNASIGMKKYFVGVNSAGKVAISAKEIKEDNIGAQVLGLFTLSTGQKIWNKTNLEHHHHHH
B9: PRT-521 (protein)
chain: MVTSVWTKGVTPPADFTQGEDVFHAPYVANQGWYDITKTFNGKDNLLCGAATAGNMLHWWFDQNKEYIEAYLKKHPEKQKIIFNNQELFDLKAAINTKGSQKNSELFNYFRDKAFPNLSARRLGVFPDLVLDMFINGYYLNVTKTQTTDVNRTYQEKDKRGGIFDAVFTRGVQSKLLTSRHDLKNKGLKEISDLIKQELTEGKALGLSHTYANVRINHVINLWGADFDSDGNLKAIYVTDSDTNASIGMKKYFVGVNSAGKVAISAKEIKEDNIGAQVLGLFTLSTGQDIWNQTNLEHHHHHH
B10: PRT-636 (protein)
chain: MQITSVWTKGVTPLTMDQFRNYNYDVIHAPYKPGQGWYDITKAFDGKDNLLCGAATAGNMLHWWFDQNKTEIEAYLSKHPEKQKIIFNNQELFDLKAAIDTKDSQTNSQLFNYFRDKAFPNLSARQLGVMPDLVLDMFINGYYLNVFKTQSTDVNRPYQDKDKRGGIFDAVFTRGDQTTLLTARHDLKNKGLNDISTIIKQELTEGKALALSHTYANVSISHVINLWGADFNAEGNLEAIYVTDSDANASIGMKKYFVGINAHGHVAISAKKIEGENIGAQVLGLFTLSSGKDIWQKLSLEHHHHHH
B11: PRT-667 (protein)
chain: MQITSVWTKGVTPLTPEQFRYNNEDVFHAPYLAHQGWYDITKAFNGKDNLLCGAATAGNMLHWWFDQNKEEIEAYLKKHPEKQKIIFNNQELFDLRKAINTKDSQTNSQLFNYFRDKAFPNLSARQLGVMPDLVLDMFINGYYLNLNKTQSTDVNRPYQDKDKRGGIFDHVFTRGDQTTLLTARHDLKNKTLNDISQLIKQELQEGKALALSHTYANVSISHVINLWGADFNAEGNLEAIYVTDSDSDASIGMKKYFVGKNASGHVAISAKKIEGENIGAQVLGLFTLSSGKEIWQKLSLEHHHHHH
B12: PRT-688 (protein)
chain: MQITSVWTKGVTPLTMDDFTINNEDVIHAPYVANQGWYDITKTFNGKDNLLCGAATAGNMLHWWFDQNKEEIERYLKKHPEKQKIIFNNQELFDLKEAINTKDSQTDSKLFNYFRDKAFPNLSARQLGVMPDLVLDMFINGYYLNVFKTQSTDVNRPYDTKDKRGGIFDHVFTRGDQSTLLTARHDLKNKTLKEISDIIKQELTEGKALALSHTYANVSISHVINLWGADFNAEGNLEAIYVTDSDANASIGMKKYYVGVNSHGKVAISAKKIEGENIGAQVLGLFTLSSGKDIWQKLSLEHHHHHH
B13: PRT-510 (protein)
chain: MITSVWTKGVTPPTDFRKIVDGNIAYYHAPYKAGQGWYDITKAFDGGDDLLCGAATAGNMLHWWFDQNKEEIEAYLKKHPEKQKIMFGDQELLDVRKVINTKDSQTNSALFNYFKDKAFPNLSARRLGVMPDLVLDMFINGYYLNVYKTQTTDVNRTYQTKDRRGGIFDAVFTRGDQSKLLTERHDLKNKTLKEISDLIKQELTEGKALGLSHTYANVRINHVINLWGADFDSNGNLEAIYVTDSDSNASIGMKKYFVGVNSAGKVAISAKEIKEDNIGAQVLGLFTLSTGQDIWNQTNLEHHHHHH
B14: PRT-520 (protein)
chain: MVTSVWTKGVTPPTDFRKIVDGNIAYYHAPYKAGQGWYDITKAFDGGDNLLCGAATAGNMLHWWFDQNKEYIEAYLKKHPEKQKIIFNNQELFDLKAAINTKGSQKNSELFNYFRDKAFPNLSARRLGVFPDLVLDMFINGYYLNVTKTQTTDVNRTYQEKDKRGGIFDAVFTRGVQSKLLTSRHDLKNKGLKEISDLIKQELTEGKALGLSHTYANVRINHVINLWGADFDSDGNLKAIYVTDSDTNASIGMKKYFVGVNSAGKVAISAKEIKEDNIGAQVLGLFTLSTGQDIWNQTNLEHHHHHH

Target: pooled human IgG (human IgG1,2,3 and 4)

Protein	Enzyme Activity Endpoint Assay (purified): Fab′2 [ng/µL]	Enzyme Activity Endpoint Assay (purified): Fc [ng/µL]	Enzyme Activity Endpoint Assay (purified): IgG [ng/µL]	Enzyme Activity Endpoint Assay (purified): scIgG [ng/µL]
B1	0	0	1400	0
B2	0	0	0	0
B3	1080	363	0	0
B4	488	318	325	124
B5	300	282	227	481
B6	0	0	0	0
B7	54	207	362	1020
B8	0	0	0	0
B9	0	13	0	0
B10	12	17	0	0
B11	61	197	279	896
B12	0	0	1950	0
B13	51	29	0	0
B14	271	265	470	475
